Measurements published in US10364296B2, “Antibodies specific for MMP9” (CALYPSO BIOTECH SA, priority 2014, dated 2019).

B1: F20-VH-GL1-V4-V9/B08-VL-GL6c: VH SEQ ID NO: 19; VL SEQ ID NO: 70; reformatted as human IgG4; the F20-VH/B08-VLc variant of Examples 5-12 (antibody, V domains shown)
VH: EVQLVESGGGLVQPGRSLRLSCAASGFTFNDYPMHWVRQAPGKGLEWVSGISSRSGSVGYAESVKGRFTISRDNAKNSLYLQMNSLRAEDTALYYCARDKIYYGSGSYDFYYYYGMDVWGQGTTVTVSS
VL: QSALTQPASVSGSPGQSITISCTGTSNDVGAYNRVSWYQQHPGKAPKLMIYGVSNRPSGVSNRFSGSKSGNTASLTISGLQAEDEADFYCTSYSSSTTSYVVFGGGTKVTVL
modifications: human IgG4 format; heavy chain F20-VH-GL1-V4-V9; light chain B08-VL-GL6c
B2: F20-VH/B08-VLc: VH SEQ ID NO: 11; VL SEQ ID NO: 69; HO candidate selected for lead optimization; name also used loosely for its tested variant (antibody, V domains shown)
VH: EVQLVESGGGLVQPGRSLRLSCAASGFTFNDYPMHWVRQAPGKGLEWVSGISSNSGSVGYADSVKGRFTISRDNAKNSLYLQMNSLRDEDTAVYYCARDKIYYGSGSYDFYYYYGMDVWGQGTTVTVSS
VL: QSALTQPRSVSGSPGQSVTISCTGTSNDVGAYNRVSWYQQHPGKAPKLLIYGVSNRPSGVSTRFSGSKSGNTASLTISGLLAADEADFYCTSYSSSTTSYVVFGGGTKVTVL
modifications: heavy chain F20-VH; light chain B08-VLc

What was measured:
[1] = molecular target: Human MMP9 (i.e. activated MMP9) (Homo sapiens, UniProt P14780); test: MMP9 assay: DQ-gelatin digestion by pre-activated (caspase-cleaved) MMP9; format: biochemical; settings: MMP9 assay with highly purified activated MMP9
Protocol: The functional neutralization of MMP9 catalytic activity towards the fluorogenic polymer substrate DQ-gelatin by some antibodies according to the invention was evaluated. The signature activity of MMP9 (and MMP2) is gelatin degradation. Gelatin is essentially an irreversibly denatured form derived from various collagens, several of which are considered key physiological substrates for MMP9. Unlike small peptidic substrates, the binding and recognition of gelatin (similar to that of collagen) by MMP9 is complex and known to be mediated via regions of the molecule other than the active site, including the fibronectin and PEX domains. In order to retain these physiologically relevant ‘exosite’ interactions and to facilitate the isolation of potential ‘non-classical’ allosteric neutralizer classes, a fluorogenically quenched soluble gelatin polymer (DQ-gelatin) was chosen as the key substrate for plate-based screening and ranking purposes. Substrate hydrolysis was mediated by truncated fragment of MMP9 (ie. pro-domain removed). The assay was performed in two modes. The first mode, named “MMP9 assay”, utilized pre-activated MMP9 (from engineered MMP9 containing a LETD caspase 8 recognition motif at the native cleavage junction) in which the pro-domain was first removed via directed caspase 8 cleavage. […]

MMP3-activated MMP9 [2] = molecular target: T1, MMP3-activated MMP9 (Homo sapiens, UniProt P14780); test: Direct binding ELISA; settings: biotinylated antibody, antigen coated at 2.5 μg/ml
Protocol: (§1) MMP9 antigens were coated at 2.5 μg/ml. Controls were streptavidin-HRP alone (closed triangles), or human IgG4 isotype control plus biotinylated anti-human-IgG second step Fab antibody (closed squares).
(§2) Direct binding capacities of anti-MMP9 antibodies towards human pro-MMP9 and MMP3-activated human MMP9, respectively, were assessed using a standard ELISA protocol. Briefly, 96-well plates were coated with (2.5 μg/ml) of either form of MMP9 for 16 h at room temperature.

human pro-MMP9 [3] = molecular target: T2, human pro-MMP9 (Homo sapiens, UniProt P14780); test: Direct binding ELISA; settings: biotinylated antibody, antigen coated at 2.5 μg/ml
Protocol: as §1, §2

MMP3-activated MMP9 [4] = molecular target: T1, MMP3-activated MMP9; test: Surface Plasmon Resonance (BIAcore) binding; settings: for SPR binding to MMP3-activated MMP9 (in words): sensograms, 4.7 to 150 nM
Protocol: (§3) Sensorgrams of kinetics of binding are reported. Resonance unit (RU). All y axis-response (RU); all x axis-time (s).
(§4) Binding of anti-MMP9 antibodies towards recombinant human MMP9 antigen was characterized using standard Surface Plasmon Resonance (SPR) assay. In a first step, anti-MMP9 antibodies were captured by anti-human Fc antibody immobilized onto a BIAcore sensor chip. In a second step, pro-MMP9 or MMP3-activated MMP9 were titrated from 4.7 to 150 nM in 2-fold dilutions.

human pro-MMP9 [5] = molecular target: T2, human pro-MMP9; test: Surface Plasmon Resonance (BIAcore) binding; settings: for SPR binding to pro-MMP9 (in words): sensograms, 4.7 to 150 nM
Protocol: as §3, §4

MMP3-activated MMP9 [6] = molecular target: T1, MMP3-activated MMP9; test: Competitive binding ELISA; settings: pre-incubation with 50 μg/mL purified antibody
From the text: For panels A, B, C, results are expressed as mean±SD of corrected absorbance (A450-A620) for each condition performed in duplicate.

[7] = tested on: heterotopic intestinal grafts in C57BL/6 mice; test: Heterotopic transplant mouse model of intestinal fibrosis; format: in vivo
Protocol: Donor (green fluorescent protein-marked C57BL/6-Tg UBC-GFP mice) small bowel resections were transplanted subcutaneously into the neck of recipient C57BL/6 mice. Mice were injected intraperitoneally at day 5, 8 and 10 with 30 mg/kg of an anti-MMP9 antibody of the invention (F20-VH/B08-VLc, variant F20-VH-GL1-V4-V9/B08-VL-GL6c), or isotype control antibody (IgG4), 5 mice per group. Small bowel grafts were explanted 14 days after transplantation. After explant, each graft was divided into three equal segments. The central segment was fixed in 4% formalin, and prepared for histopathological assessment. The two outer segments were snap frozen in liquid nitrogen and stored at −70° C. until RNA or protein extraction.
Histologic cross sections were stained with Sirius red to highlight collagen (red stain). Collagen layer thickness was determined by an independent investigator blinded to the type of experiment. Microscopic assessment was done using an AxioCam MRc5 on a Zeiss Axiophot microscope. The thickness of the collagen layer was measured with the AxioVision Release 4.7.2 software (Zeiss). Thickness was calculated from eight places in representative areas (in eight samples investigated for each time point) at 100-fold magnification. Statistical analyses were performed using PRISM 6 software. Unpaired t test was used for comparison among groups.

[8] = tested on: MGC803 human gastric cancer cells; test: Cancer cell invasion through Matrigel-coated transwell; format: cell-based; settings: 10 μg/ml antibody, PMA 100 ng/ml, 16 h
Protocol: MGC803 human gastric cancer cells were incubated with Phorbol 12-Myristate 13-Acetate (PMA) and with a broad chemical inhibitor of MMPs (GM-6001), anti-MMP9 antibody (F20-VH/B08-VLc), isotype control or medium alone. Invading cells were quantified after 16 hours using Calcein-AM. Each condition was performed in duplicates and means and SD of fluorescence units are reported.
Cancer cell line invasion was assessed using Matrigel-coated transwells. Insert membranes of transwells (provided in kit from Cultrex—3455-024) were coated with basement membrane extract (BME ×0.5; provided in Cultrex's kit) and incubated for 24 h at 37° C. Meanwhile, MGC803 (human gastric cancer cell line—Easy-Bio, China) were starved in RPMI culture medium (Gibco—52400025) deprived of serum (starving medium). […] One hundred μl of treated cells were seeded into Matrigel-coated transwells and 500 μl of RPMI medium containing 10% FCS were added in the lower side of the transwell. Plates were incubated for 16 h at 37° C. Invading cells were quantified by incubation of the bottom side of transwell membrane with Calcein-AM, whose cleavage into fluorescent Calcein is proportional to cell counts. Emitted fluorescent signal (Excitation at 485 nm, emission at 520 nm) reflects efficiency of cell invasion through Matrigel.

[9] = tested on: DSS-induced colitis in BALB/c mice; test: DSS-induced colitis mouse model; format: in vivo; settings: Day 14, vs isotype control
Protocol: The therapeutic efficacy of an anti-MMP9 antibody according to the invention was assessed in a DSS-induced colitis model in BALB/c mice. Colitis was induced with 4% (w/v) DSS in drinking water for 5 days. Doses of 30 mg/kg F20-VH/B08-VLc (variant F20-VH-GL1-V4-V9/B08-VL-GL6c) or isotype control (IgG4) antibodies were intraperitoneally injected to groups of 10 mice at day 6, 9 and 12, and animals were sacrificed at day 14.
The course of the disease was evaluated in blind fashion by video endoscopy of the lower colon at days 6, 10 and 14. Colitis was scored visually on a scale of 0-14 based on the degree of ulceration, vascularisation, and granularity present in tissue and colon length involved as follows: ulceration (0, 1, 2 or 3), masking of vascularisation (0, 1, 2 or 3), granularity (0, 1, 2 or 3), erythema (0, 1, 2 or 3), length involved (0, 1: localized, 2: diffuse). Each mouse was assigned a single endoscopy score corresponding to the damage observed throughout the entire length of the colon examined.
At study termination (Day 14), distal colon was excised from each mouse, formalin-fixed and embedded in paraffin and sectioned for histology. All sections were stained with haematoxylin and eosin and examined in a fashion blind as to treatment groups. Tissues were scored for epithelium damage and infiltration of inflammatory cells according to the scoring scale of […] for each parameter. The histology score represents the sum of the epithelium damage and infiltration of inflammatory cell scores, and thus ranges from 0 to 8.

T2 sequence (P14780 20-707): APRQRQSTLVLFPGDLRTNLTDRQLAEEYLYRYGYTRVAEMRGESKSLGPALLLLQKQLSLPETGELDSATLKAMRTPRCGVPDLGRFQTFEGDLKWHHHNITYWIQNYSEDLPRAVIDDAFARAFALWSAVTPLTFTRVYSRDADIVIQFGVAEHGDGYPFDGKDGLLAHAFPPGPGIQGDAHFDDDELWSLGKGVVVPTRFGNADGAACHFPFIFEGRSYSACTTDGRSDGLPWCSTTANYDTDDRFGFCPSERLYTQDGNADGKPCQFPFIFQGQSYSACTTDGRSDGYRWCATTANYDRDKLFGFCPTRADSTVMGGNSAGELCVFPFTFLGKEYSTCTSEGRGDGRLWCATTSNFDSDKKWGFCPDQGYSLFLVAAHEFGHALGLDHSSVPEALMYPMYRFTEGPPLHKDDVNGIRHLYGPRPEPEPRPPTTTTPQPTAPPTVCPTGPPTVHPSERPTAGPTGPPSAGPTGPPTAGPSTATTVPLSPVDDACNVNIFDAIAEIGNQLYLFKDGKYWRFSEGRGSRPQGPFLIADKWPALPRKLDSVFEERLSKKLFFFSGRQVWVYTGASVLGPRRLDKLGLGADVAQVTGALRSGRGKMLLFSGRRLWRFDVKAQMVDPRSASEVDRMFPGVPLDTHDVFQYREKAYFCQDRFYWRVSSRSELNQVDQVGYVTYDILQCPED
T1 sequence (P14780 107-707): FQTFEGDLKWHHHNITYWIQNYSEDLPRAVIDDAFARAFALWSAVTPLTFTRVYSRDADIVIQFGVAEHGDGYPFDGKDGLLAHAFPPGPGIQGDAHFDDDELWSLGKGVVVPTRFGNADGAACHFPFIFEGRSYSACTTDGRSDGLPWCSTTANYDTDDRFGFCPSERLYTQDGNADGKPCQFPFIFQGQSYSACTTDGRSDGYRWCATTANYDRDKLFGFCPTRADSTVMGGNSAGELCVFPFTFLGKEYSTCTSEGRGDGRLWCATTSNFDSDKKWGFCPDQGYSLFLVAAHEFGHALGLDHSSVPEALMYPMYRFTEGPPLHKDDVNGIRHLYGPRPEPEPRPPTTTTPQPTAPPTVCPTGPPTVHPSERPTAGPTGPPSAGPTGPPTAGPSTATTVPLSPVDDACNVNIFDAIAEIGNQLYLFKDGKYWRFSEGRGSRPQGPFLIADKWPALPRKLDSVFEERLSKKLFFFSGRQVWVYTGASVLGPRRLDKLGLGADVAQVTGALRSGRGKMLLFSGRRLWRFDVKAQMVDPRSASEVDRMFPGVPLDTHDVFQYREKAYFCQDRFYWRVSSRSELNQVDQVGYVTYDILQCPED
Sequence of Human MMP9 (i.e. activated MMP9) (P14780 107-707 limits assumed): as the sequence (P14780 107-707) above

Molecule	decrease of DQ-gelatin digestion (in words) [1]	ELISA direct binding to MMP3-activated MMP9 (in words) (MMP3-activated MMP9 [2])	ELISA direct binding to pro-MMP9 (in words) (human pro-MMP9 [3])	SPR binding to MMP3-activated MMP9 (in words) (MMP3-activated MMP9 [4])	SPR binding to pro-MMP9 (in words) (human pro-MMP9 [5])	competition with biotinylated comparative antibody 1 for binding to MMP9 (in words) (MMP3-activated MMP9 [6])	occlusion of the intestinal lumen of the graft ([7]; 14 days after transplantation)	inhibition of migration of MGC803 cancer cells through Matrigel [8]	binding observed to pro-MMP9 (human pro-MMP9 [5]; SPR, at a 150 nM antibody concentration)	loss of epithelial structure in heterotopic intestinal grafts ([7]; 30 mg/kg i.p. day 5, 8, 10, day 14, vs isotype control)	collagen layer thickness in heterotopic intestinal grafts ([7]; 30 mg/kg i.p. day 5, 8, 10, day 14, vs isotype control, p<0.0001)	mean endoscopy score ([9]; 30 mg/kg i.p. day 6, 9, 12, p=0.005)	mean colitis severity score (histology) ([9]; 30 mg/kg i.p.)	mean score for epithelial damage ([9]; 30 mg/kg i.p.)	mean score for infiltration of inflammatory cells ([9]; 30 mg/kg i.p.)	Kd (MMP3-activated MMP9 [4]; SPR, MMP3-activated MMP9, calculated from the curves, read-out: KD (nM), antigen MMP9)	Kd (human pro-MMP9 [5]; SPR, antibody captured by anti-human Fc, calculated from the curves, read-out: KD (nM), antigen Pro-MMP9)
comparative antibody 1: antibody known as AB0041, heavy chain SEQ ID NO: 44, light chain SEQ ID NO: 45; mouse monoclonal, WO 2013/130078 [reference compound]	inactive	strongly bind	binds well	bind well	binds well												
B1		strongly bind	only shows significant binding to pro-MMP9 at the highest concentration tested	bind well	minimal signal	does not prevent binding of comparative antibody 1	partial occlusion of the intestinal lumen	efficiently inhibits migration	< 1%								
B2										significantly protects against loss of epithelial structure	reduces collagen layer thickness	significant improvement	decrease	decreased	decreased	11.7 nM	> 15000 nM
